The record followed here is patent US20240294622A1 (SUZHOU TRANSCENTA THERAPEUTICS, published 2024).

The target of one test is T1, XM5-Fc (human (hGREM1 with residues 123-143 …)).
T1 construct: also called gremlin 1-DAN fusion protein
T1 chain: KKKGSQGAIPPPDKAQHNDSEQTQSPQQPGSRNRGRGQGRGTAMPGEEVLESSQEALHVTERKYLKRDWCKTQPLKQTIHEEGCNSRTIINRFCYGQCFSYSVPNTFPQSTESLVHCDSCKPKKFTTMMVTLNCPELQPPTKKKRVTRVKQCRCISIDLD
Kind of test: ELISA on coated XM5-Fc (column XM5). The method, then: Binding affinities to hGREM1 and XM5 were also compared. Briefly, XM5-Fc or Gremlin-his […] was coated. 100 μl of block solution consisting of PBS+1% BSA+1% normal goat serum+0.5% Tween 20 (Sigma) was added to each well and incubated at room temperature for 2 hours. 4-fold serial antibody dilution from 2 μg/ml were added. Afterward the plates were washed three times with 200 ul of PBS+0.1% Tween20 followed by adding 100 μl/well 1:10000 Goat anti mouse IgG-HRP (abeam), and incubate for 1 hour at room temperature. They were then washed 3× with PBS+0.1% Tween20. Finally, 100 μl/well of TMB (InnoReagents) was added to each well and after 2 minutes add 50 ul of stop solution to each well. The plates were read on a Multiscan FC microplate reader (Thermo Scientific) at […]. The EC50 values were show in table below.
For orientation: An ELISA detects its analyte on a solid surface through an enzyme-linked reagent.

Another test concerns the target T2, Mouse Gremlin-His (R&D) (mouse, UniProt O70326 25-184).
T2 construct: Lys25-Asp184 with 10xHis, R&D 956-GR; also called mouse gremlin (R&D); mGREM1
T2 sequence: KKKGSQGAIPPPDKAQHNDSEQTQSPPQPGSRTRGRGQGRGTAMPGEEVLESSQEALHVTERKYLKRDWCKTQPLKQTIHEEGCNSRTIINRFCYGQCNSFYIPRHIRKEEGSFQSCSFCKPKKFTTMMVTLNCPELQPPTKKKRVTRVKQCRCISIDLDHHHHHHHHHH
Put plainly: ELISA, coated mouse gremlin (R&D). How it is done: Clear polystyrene plates (BEAVER) were coated with 100 μl/well of a […] hGREM1 (ACRO) and mouse gremlin (R&D) in high pH coating buffer overnight at 4° C. Then the plates were washed once on an automatic plate washer using PBS+0.1% Tween 20 (Sigma). 100 μl of block solution consisting of PBS+1% BSA+1% normal goat serum+0.5% Tween 20 (Sigma) was added to each well and incubated at room temperature for 2 hours. Then 100 μl of antibodies in antibody dilution buffer containing PBS+1% BSA+1% normal goat serum+0.01% Tween 20 starting from 2 μg/ml and then serial dilutions were added to each well of the plate and incubated for 1 hours at room temperature. Afterward the plates were washed three times with 200 μl of PBS+0.1% Tween20 followed by adding 100 μl/well 1:10000 Goat anti mouse IgG-HRP (abcam), and incubate for 1 hour at room temperature. They were then washed 3× with PBS+0.1% Tween20. Finally, 100 µl/well of TMB (Pierce) was added to each well and after several minutes add 50 μl of stop solution to each well. The plates were read on a Multiscan FC microplate reader (Thermo Scientific) at […].

The target of test [1] is T3, HGREM1-His (ACRO) (human, UniProt O60565 25-184).
T3 construct: Lys25-Asp184 of NP_037504 with C-terminal polyhistidine tag (ACRO GR1-H52H3); they are put here; also called hGREM1 (ACRO); human gremlin (ACRO)
T3 sequence: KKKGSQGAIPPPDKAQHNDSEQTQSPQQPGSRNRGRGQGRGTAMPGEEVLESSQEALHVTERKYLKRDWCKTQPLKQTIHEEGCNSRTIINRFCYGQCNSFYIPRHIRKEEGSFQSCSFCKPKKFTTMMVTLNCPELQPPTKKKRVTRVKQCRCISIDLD
Put plainly: blocking ELISA, Human Gremlin-1 binding to BMP2; column Percentage. The method, then: In addition, the ability of serial dilutions of antibodies provided herein to block Gremlin binding to human BMP2/4/7 was also examined via ELISA. Plates were coated with recombinant human BMP2/4/7 (0.5 μg/ml) overnight and then serial dilutions of antibodies were incubated with 1 μg/ml of human Gremlin-his modified for 1 h at RT before this complex was added to coated plates and allowed to incubate for an additional hour at RT. The plates were then washed and added with anti-his HRP (GenScript). Plates were then developed with a TMB solution and stopped by adding stop solution. The plates were read on a plate reader at 450 nm. […] The chimeric anti-gremlin 1 antibodies (69H5-chi) and chimeric anti-gremlin 1 antibodies (22F1-chi) also can inhibit the binding of gremlin to BMP2 and BMP4 (see, FIG. 3E and FIG. 3F). The chimeric anti-gremlin 1 antibodies (56C11-chi) can inhibit the binding of gremlin to BMP2 (see, FIG. 3E).

Test [2] deals with T3, HGREM1-His (ACRO). Put plainly: competition ELISA on captured human gremlin (Acro,0.5ug/ml), upper panel: hybridoma 14E3 titrated against a fixed amount of chimeric 22F1-C, bound chimeric antibody detected. The method, then: Epitope binning of anti-gremlin hybridoma antibodies were performed using a competition ELISA assay. Clear polystyrene plates (BEAVER) were coated with 100 μl/well of a 0.5 μg/ml hGREM1 (ACRO) in high pH coating buffer overnight at 4° C. Then the plates were washed once on an automatic plate washer using PBS+0.1% Tween 20 (Sigma). 100 μl of block solution consisting of PBS+1% BSA+1% normal goat serum+0.05% Tween 20 (Sigma) was added to each well and incubated at room temperature for 2 hours. Then 50 μl/well of 20 μg/ml saturated antibodies (hybridoma antibodies) in antibody dilution buffer (PBS+1% BSA+1% normal goat serum+0.01% Tween 20) were then added to each well of the plate and incubate for 1 hour. Then add 50 μl/well of 40 ng/ml competitive antibodies (chimeric antibodies, e.g., 14E3-C, 22F1-C, 56C11-C, and 69H5-C) to each well of the plate and incubate for another 1 hour at room temperature. […] The plates were read on a plate reader at 450 nm. The failure of the second antibody to bind in the presence of saturating quantities of the first antibody indicates the two antibodies were in the same epitope bin; the success of the second antibody to bind in the presence of the saturating quantities of the first antibody indicates the two antibodies were in different epitope bins. […]
The amount of chimeric antibody bound to gremlin were determined.

B1: 36F5 (antibody, V domains shown)
VH: QVQLQQSGAELARPGASVKLSCKASGYSFTSSGIGWVKQRSGQGLEWIGEIYPRSGNTYNNEKFKGKATLTADKSSSTVYMELRSLTSEDSAVYFCVREAYSHHYYAMDYWGQGTSVTVFS
VL: DVLMTQTPLSLPVSLGGQASISCRSSQSLLHSNGNTYLEWYLQKPGQSPKLLIYKVSNRFSGVPDRLSGSGSGTDFTLKISRVEAEDLGVYYCFQGSHVPFTFGSGTKLEIN
notes: mouse hybridoma antibody; also called hybridoma 36F5
Consider B1, for which the EC50 (commonly the concentration at which the effect is half-maximal) with XM5-Fc worked out at 6.92 ng/mL; in the test with Mouse Gremlin-His (R&D), 4.56 ng/mL. Moreover, the IC50 – broadly, the concentration at which inhibition is half-maximal – with HGREM1-His (ACRO) [1] was 0.604 µg/mL.

B2: 14E3 (antibody, V domains shown)
VH: QIQLVQSGPELKKPGETVKISCKTSGSTFTTYGMAWMKQAPGKGLTWMGWINTLSGEPTYADDFKGRFAFSLKTSANTAYLQINNLKNEDAATYFCAREPMDYWGQGTSVIVSS
VL: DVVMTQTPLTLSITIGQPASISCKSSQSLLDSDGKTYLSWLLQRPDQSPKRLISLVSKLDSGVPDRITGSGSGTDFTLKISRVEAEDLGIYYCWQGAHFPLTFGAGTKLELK
notes: mouse hybridoma antibody; also called hybridoma 14E3; anti-gremlin1 antibody 14E3
Take B2: in the test with HGREM1-His (ACRO) [2], the “IC50 (read off the curve)” value is about 1 µg/mL.
